The text below walks through data of paper PMC12291119, “In Vitro Selection of Cyclized, Glycosylated Peptide Antigens That Tightly Bind HIV High Mannose Patch Antibodies” (ACS Central Science, 2025).

Holding throughout (test): BLI; glycopeptides immobilized via biotin on a streptavidin biosensor; series of 2-fold dilutions of antibody
Background: In BLI a coated tip is dipped into the sample, and binding shifts an interference pattern.

The target in assay [1] is H22 glycopeptide (peptide 2).
For assay [2], the target named is L1 glycopeptide (peptide 8).
Assay [3] addresses acyclic H1 variant (peptide 7).
Assay [4] concerns the target H1 mutant without the glycans at the second and third glycosylation sites (peptide 4).
The target in assay [5] is H1 mutant with IGDIR changed to IAAIA (peptide 5).
In assay [6] the target is H1 mutant without the glycan at the first of the three glycosylation sites (peptide 3).
For assay [7], the target named is random scrambled version of the H1 sequence containing three glycans and cyclization (peptide 6).
In assay [8] the target is H1 glycopeptide (peptide 1).

B1: PGT128 (antibody, V domains shown)
VH: QPQLQESGPTLVEASETLSLTCAVSGDSTAACNSFWGWVRQPPGKGLEWVGSLSHCASYWNRGWTYHNPSLKSRLTLALDTPKNLVFLKLNSVTAADTATYYCARFGGEVLRYTDWPKPAWVDLWGRGTLVTVSS
VL: QSALTQPPSASGSPGQSITISCTGTSNNFVSWYQQHAGKAPKLVIYDVNKRPSGVPDRFSGSKSGNTASLTVSGLQTDDEAVYYCGSLVGNWDVIFGGGTKLTVL
For B1, the Kd stood at 16.9 nM in assay [1]; 2.37 nM in assay [2]; 90 nM in assay [3]; 251 nM in assay [7]; 0.52 nM in assay [8]. Further, the results for the fold decrease in binding against H1 (peptide 1) in assay [4] and in assay [5] were 40 fold and 26 fold, respectively. For the same molecule, the fold loss of recognition against H1 (peptide 1) in assay [6] came to 2 fold.

By Kd is commonly meant the concentration at which binding is half-saturated. Low readings indicate tighter binding, high ones weaker binding.
